According to patent US20230395193A1 (priority 2020, published 2023):

B1: M-Q5BJH7 (protein, UniProt Q5BJH7 1-314, looked up)
Protein YIF1B: MHPAGLAAAAAGTPRLRKWPSKRRIPVSQPGMADPHQLFDDTSSAQSRGYGAQRAPGGLSYPAASPTPHAAFLADPVSNMAMAYGSSLAAQGKELVDKNIDRFIPITKLKYYFAVDTMYVGRKLGLLFFPYLHQDWEVQYQQDTPVAPRFDVNAPDLYIPAMAFITYVLVAGLALGTQDRFSPDLLGLQASSALAWLTLEVLAILLSLYLVTVNTDLTTIDLVAFLGYKYVGMIGGVLMGLLFGKIGYYLVLGWCCVAIFVFMIRTLRLKILADAAAEGVPVRGARNQLRMYLTMAVAAAQPMLMYWLTFHLVR
B2: E-Q9BTV4 (protein, UniProt Q9BTV4 2-400, looked up)
Transmembrane protein 43: AANYSSTSTRREHVKVKTSSQPGFLERLSETSGGMFVGLMAFLLSFYLIFTNEGRALKTATSLAEGLSLVVSPDSIHSVAPENEGRLVHIIGALRTSKLLSDPNYGVHLPAVKLRRHVEMYQWVETEESREYTEDGQVKKETRYSYNTEWRSEIINSKNFDREIGHKNPSAMAVESFMATAPFVQIGRFFLSSGLIDKVDNFKSLSLSKLEDPHVDIIRRGDFFYHSENPKYPEVGDLRVSFSYAGLSGDDPDLGPAHVVTVIARQRGDQLVPFSTKSGDTLLLLHHGDFSAEEVFHRELRSNSMKTWGLRAAGWMAMFMGLNLMTRILYTLVDWFPVFRDLVNIGLKAFAFCVATSLTLLTVAAGWLFYRPLWALLIAGLALVPILVARTRVPAKKLE
B3: E-Q9NPI6 (protein, UniProt Q9NPI6 1-582, looked up)
mRNA-decapping enzyme 1A: MEALSRAGQEMSLAALKQHDPYITSIADLTGQVALYTFCPKANQWEKTDIEGTLFVYRRSASPYHGFTIVNRLNMHNLVEPVNKDLEFQLHEPFLLYRNASLSIYSIWFYDKNDCHRIAKLMADVVEEETRRSQQAARDKQSPSQANGCSDHRPIDILEMLSRAKDEYERNQMGDSNISSPGLQPSTQLSNLGSTETLEEMPSGSQDKSAPSGHKHLTVEELFGTSLPKEQPAVVGLDSEEMERLPGDASQKEPNSFLPFPFEQLGGAPQSETLGVPSAAHHSVQPEITTPVLITPASITQSNEKHAPTYTIPLSPVLSPTLPAEAPTAQVPPSLPRNSTMMQAVKTTPRQRSPLLNQPVPELSHASLIANQSPFRAPLNVTNTAGTSLPSVDLLQKLRLTPQHDQIQTQPLGKGAMVASFSPAAGQLATPESFIEPPSKTAAARVAASASLSNMVLAPLQSMQQNQDPEVFVQPKVLSSAIPVAGAPLVTATTTAVSSVLLAPSVFQQTVTRSSDLERKASSPSPLTIGTPESQRKPSIILSKSQLQDTLIHLIKNDSSFLSTLHEVYLQVLTKNKDNHNL
modifications: interactor of SARS-CoV-2 E
B4: M-Q4KMQ2 (protein, UniProt Q4KMQ2 1-910, looked up)
Anoctamin-6: MKKMSRNVLLQMEEEEDDDDGDIVLENLGQTIVPDLGSLESQHDFRTPEFEEFNGKPDSLFFNDGQRRIDFVLVYEDESRKETNKKGTNEKQRRKRQAYESNLICHGLQLEATRSVLDDKLVFVKVHAPWEVLCTYAEIMHIKLPLKPNDLKNRSSAFGTLNWFTKVLSVDESIIKPEQEFFTAPFEKNRMNDFYIVDRDAFFNPATRSRIVYFILSRVKYQVINNVSKFGINRLVNSGIYKAAFPLHDCKFRRQSEDPSCPNERYLLYREWAHPRSIYKKQPLDLIRKYYGEKIGIYFAWLGYYTQMLLLAAVVGVACFLYGYLNQDNCTWSKEVCHPDIGGKIIMCPQCDRLCPFWKLNITCESSKKLCIFDSFGTLVFAVFMGVWVTLFLEFWKRRQAELEYEWDTVELQQEEQARPEYEARCTHVVINEITQEEERIPFTAWGKCIRITLCASAVFFWILLIIASVIGIIVYRLSVFIVFSAKLPKNINGTDPIQKYLTPQTATSITASIISFIIIMILNTIYEKVAIMITNFELPRTQTDYENSLTMKMFLFQFVNYYSSCFYIAFFKGKFVGYPGDPVYWLGKYRNEECDPGGCLLELTTQLTIIMGGKAIWNNIQEVLLPWIMNLIGRFHRVSGSEKITPRWEQDYHLQPMGKLGLFYEYLEMIIQFGFVTLFVASFPLAPLLALVNNILEIRVDAWKLTTQFRRLVPEKAQDIGAWQPIMQGIAILAVVTNAMIIAFTSDMIPRLVYYWSFSVPPYGDHTSYTMEGYINNTLSIFKVADFKNKSKGNPYSDLGNHTTCRYRDFRYPPGHPQEYKHNIYYWHVIAAKLAFIIVMEHVIYSVKFFISYAIPDVSKRTKSKIQREKYLTQKLLHENHLKDMTKNMGVIAERMIEAVDNNLRPKSE
B5: M-Q5JRX3 (protein, UniProt Q5JRX3 29-1037, looked up)
Presequence protease, …: NSNRACERALQYKLGDKIHGFTVNQVTSVPELFLTAVKLTHDDTGARYLHLAREDTNNLFSVQFRTTPMDSTGVPHILEHTVLCGSQKYPCRDPFFKMLNRSLSTFMNAFTASDYTLYPFSTQNPKDFQNLLSVYLDATFFPCLRELDFWQEGWRLEHENPSDPQTPLVFKGVVFNEMKGAFTDNERIFSQHLQNRLLPDHTYSVVSGGDPLCIPELTWEQLKQFHATHYHPSNARFFTYGNFPLEQHLKQIHEEALSKFQKIEPSTVVPAQTPWDKPREFQITCGPDSFATDPSKQTTISVSFLLPDITDTFEAFTLSLLSSLLTSGPNSPFYKALIESGLGTDFSPDVGYNGYTREAYFSVGLQGIAEKDIETVRSLIDRTIDEVVEKGFEDDRIEALLHKIEIQMKHQSTSFGLMLTSYIASCWNHDGDPVELLKLGNQLAKFRQCLQENPKFLQEKVKQYFKNNQHKLTLSMRPDDKYHEKQAQVEATKLKQKVEALSPGDRQQIYEKGLELRSQQSKPQDASCLPALKVSDIEPTIPVTELDVVLTAGDIPVQYCAQPTNGMVYFRAFSSLNTLPEELRPYVPLFCSVLTKLGCGLLDYREQAQQIELKTGGMSASPHVLPDDSHMDTYEQGVLFSSLCLDRNLPDMMQLWSEIFNNPCFEEEEHFKVLVKMTAQELANGIPDSGHLYASIRAGRTLTPAGDLQETFSGMDQVRLMKRIAEMTDIKPILRKLPRIKKHLLNGDNMRCSVNATPQQMPQTEKAVEDFLRSIGRSKKERRPVRPHTVEKPVPSSSGGDAHVPHGSQVIRKLVMEPTFKPWQMKTHFLMPFPVNYVGECIRTVPYTDPDHASLKILARLMTAKFLHTEIREKGGAYGGGAKLSHNGIFTLYSYRDPNTIETLQSFGKAVDWAKSGKFTQQDIDEAKLSVFSTVDAPVAPSDKGMDHFLYGLSDEMKQAHREQLFAVSHDKLLAVSDRYLGTGKSTHGLAILGPENPKIAKDPSWIIQ
modifications: interactor of viral M protein

Tested on: SARS-CoV-1, MERS-CoV and SARS-CoV-2 proteins in HEK293T cells
Set-up: species or system human

| Molecule | MIST_MERS | MIST_SARS1 | MIST_SARS2 | Saint_MERS | Saint_SARS1 | Saint_SARS2 |
| --- | --- | --- | --- | --- | --- | --- |
| B1 | 0.3712 | 0.9893 | 0.5979 | 0 | 0.97 | 1 |
| B2 | 0.8753 | 0 | 0 | 1 | 0 | 0 |
| B3 | 0.9797 | 0 | 0 | 1 | 0 | 0 |
| B4 | 0 | 0.864 | 0.9939 | 0 | 0.32 | 1 |
| B5 | 0 | 0.001111 | 0.9523 | 0 | 0 | 1 |
